Data on 1 molecule can be found in paper PMC12280208 (Nature Communications, 2025).

This experiment addresses MVP3-5 (MVP residues 102-274), wild type (human, UniProt Q14764 102-274). The experiment can be described thus: SEC. (In gel filtration, larger molecules generally elute earlier.)

Chain of MVP3-5 (MVP residues 102-274), wild type (Q14764 102-274): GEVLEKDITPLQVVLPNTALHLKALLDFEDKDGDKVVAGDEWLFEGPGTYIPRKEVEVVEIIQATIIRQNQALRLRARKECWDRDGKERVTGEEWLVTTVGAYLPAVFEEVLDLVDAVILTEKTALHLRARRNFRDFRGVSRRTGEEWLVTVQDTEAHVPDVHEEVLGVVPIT

B1: PARP4 MINT domain (residues 1562-1724), wild type (domain or fragment)
chain: VCIQHWQDAVPWTELLSLQTEDGFWKLTPELGLILNLNTNGLHSFLKQKGIQSLGVKGRECLLDLIATMLVLQFIRTRLEKEGIVFKSLMKMDDASISRNIPWAFEAIKQASEWVRRTEGQYPSICPRLELGNDWDSATKQLLGLQPISTVSPLHRVLHYSQG
For B1, the binding result is recorded as “binds”.
